Assay results from patent publication US20250236657A1 (TOSOH, published 2025).

Columns and labels:
[1] = target: AAV2 D528A (adeno-associated virus serotype 2 (AAV2)) (UniProt P03135); test: affinity HPLC, POROS AAVX resin, linear pH gradient 6.0 to 2.0, AAV2 peak top
[2] = target: AAV2 T503S (adeno-associated virus serotype 2 (AAV2)) (UniProt P03135); test: as above
[3] = target: AAV2 (wild type), serotype 2 AAV with capsid region VP1 of SEQ ID NO: 99 (adeno-associated virus serotype 2 (AAV2)) (UniProt P03135); test: as above
[4] = target: AAV2 D529A (adeno-associated virus serotype 2 (AAV2)) (UniProt P03135); test: as above
[5] = target: AAV2 R471A (adeno-associated virus serotype 2 (AAV2)) (UniProt P03135); test: as above
[6] = target: AAV2 S384A (adeno-associated virus serotype 2 (AAV2)) (UniProt P03135); test: as above
[7] = target: AAV2 Q263A (adeno-associated virus serotype 2 (AAV2)) (UniProt P03135); test: as above
[8] = target: AAV2 H271A (adeno-associated virus serotype 2 (AAV2)) (UniProt P03135); test: as above
[9] = target: AAV2 S264A (adeno-associated virus serotype 2 (AAV2)) (UniProt P03135); test: as above
[10] = target: AAV2 H271T (adeno-associated virus serotype 2 (AAV2)) (UniProt P03135); test: as above
[11] = target: AAV2 E499A (adeno-associated virus serotype 2 (AAV2)) (UniProt P03135); test: as above
[12] = target: AAV2 G383A (adeno-associated virus serotype 2 (AAV2)) (UniProt P03135); test: as above
[13] = target: AAV2 H271Q (adeno-associated virus serotype 2 (AAV2)) (UniProt P03135); test: as above
[14] = target: AAV2 S267A (adeno-associated virus serotype 2 (AAV2)) (UniProt P03135); test: as above
[15] = target: AAV2 Q385A (adeno-associated virus serotype 2 (AAV2)) (UniProt P03135); test: as above
[16] = target: AAV2 N382A (adeno-associated virus serotype 2 (AAV2)) (UniProt P03135); test: as above
[17] = target: AAV2 D529E (adeno-associated virus serotype 2 (AAV2)) (UniProt P03135); test: as above
[18] = target: AAV2 S267T (adeno-associated virus serotype 2 (AAV2)) (UniProt P03135); test: as above
[19] = target: AAV2 H271F (adeno-associated virus serotype 2 (AAV2)) (UniProt P03135); test: as above
[20] = target: AAV2 D528A (adeno-associated virus serotype 2 (AAV2)) (UniProt P03135); test: affinity HPLC, POROS AAVX resin, linear pH gradient 4.5 to 2.2, AAV2 peak top
[21] = target: AAV2 T503S (adeno-associated virus serotype 2 (AAV2)) (UniProt P03135); test: as above
[22] = target: AAV2 (wild type), serotype 2 AAV with capsid region VP1 of SEQ ID NO: 99 (adeno-associated virus serotype 2 (AAV2)) (UniProt P03135); test: as above
[23] = target: AAV2 D529A (adeno-associated virus serotype 2 (AAV2)) (UniProt P03135); test: as above
[24] = target: AAV2 S384A (adeno-associated virus serotype 2 (AAV2)) (UniProt P03135); test: as above
[25] = target: AAV2 S264A (adeno-associated virus serotype 2 (AAV2)) (UniProt P03135); test: as above
[26] = target: AAV2 H271Q (adeno-associated virus serotype 2 (AAV2)) (UniProt P03135); test: as above
[27] = target: AAV2 Q385A (adeno-associated virus serotype 2 (AAV2)) (UniProt P03135); test: as above
[28] = target: AAV2 N382A (adeno-associated virus serotype 2 (AAV2)) (UniProt P03135); test: as above

In the case of “POROS Capture Select AAVX Affinity Resin (manufactured by Thermo Fisher Scientific)”, the AAVX column elution time [1] is reported as 59.1 min, the AAVX column elution time [2] is reported as 59.4 min and the AAVX column elution time [3] is reported as 59.3 min. The AAVX column elution time [4] was 59.3 min, the AAVX column elution time [5] was 59.4 min and the AAVX column elution time [6] was 59.3 min. It also gave an AAVX column elution time [7] of 59.3 min, an AAVX column elution time [8] of 59.4 min and an AAVX column elution time [9] of 59.2 min. The AAVX column elution time [10] was 59.3 min, the AAVX column elution time [11] was 59.3 min and the AAVX column elution time [12] was 59.3 min. For the same substance, the AAVX column elution time [13] was 59.3 min, the AAVX column elution time [14] was 59.3 min and the AAVX column elution time [15] was 59.3 min. The AAVX column elution time [16] was 59.2 min, the AAVX column elution time [17] was 59.3 min and the AAVX column elution time [18] was 59.2 min. It also gave an AAVX column elution time [19] of 59.3 min, an AAVX column elution time [20] of 47.8 min and an AAVX column elution time [21] of 48 min. The AAVX column elution time [22] was 48.2 min, the AAVX column elution time [23] was 47.8 min and the AAVX column elution time [24] was 48 min. For the same substance, the AAVX column elution time [25] was 48 min, the AAVX column elution time [26] was 48.1 min and the AAVX column elution time [27] was 47.9 min. The AAVX column elution time [28] was 47.9 min.
